Measurements taken from article PMC5469197, “ANGUSTIFOLIA, a Plant Homolog of CtBP/BARS Localizes to Stress Granules and Regulates Their Formation” (Frontiers in Plant Science, 2017).

Experiments:
Test in all cases: co-IP; LUMIER in HEK293TN cells: Prot-A fusion co-transfected with Renilla luciferase fusion (AN always the luciferase fusion with the interactors); luciferase activity before (input) and after pulldown; percentage pulldown = pulldown/input x 100; empty vectors as negative control; positive if more than two times the background
Details in all cases: partners not purified
[1] = biological target: T1, ARGONAUTE1 (AGO1), Prot-A fusion (Arabidopsis thaliana, UniProt O04379 1-1048)
T1 construct: ARGONAUTE1, Arabidopsis thaliana, AT1G48410; CDS amplified from Col-0 cDNA; source: HEK293TN cells, transfected; not shown: Protein A (Staphylococcus aureus), N-terminal, kept
T1 sequence (looked up): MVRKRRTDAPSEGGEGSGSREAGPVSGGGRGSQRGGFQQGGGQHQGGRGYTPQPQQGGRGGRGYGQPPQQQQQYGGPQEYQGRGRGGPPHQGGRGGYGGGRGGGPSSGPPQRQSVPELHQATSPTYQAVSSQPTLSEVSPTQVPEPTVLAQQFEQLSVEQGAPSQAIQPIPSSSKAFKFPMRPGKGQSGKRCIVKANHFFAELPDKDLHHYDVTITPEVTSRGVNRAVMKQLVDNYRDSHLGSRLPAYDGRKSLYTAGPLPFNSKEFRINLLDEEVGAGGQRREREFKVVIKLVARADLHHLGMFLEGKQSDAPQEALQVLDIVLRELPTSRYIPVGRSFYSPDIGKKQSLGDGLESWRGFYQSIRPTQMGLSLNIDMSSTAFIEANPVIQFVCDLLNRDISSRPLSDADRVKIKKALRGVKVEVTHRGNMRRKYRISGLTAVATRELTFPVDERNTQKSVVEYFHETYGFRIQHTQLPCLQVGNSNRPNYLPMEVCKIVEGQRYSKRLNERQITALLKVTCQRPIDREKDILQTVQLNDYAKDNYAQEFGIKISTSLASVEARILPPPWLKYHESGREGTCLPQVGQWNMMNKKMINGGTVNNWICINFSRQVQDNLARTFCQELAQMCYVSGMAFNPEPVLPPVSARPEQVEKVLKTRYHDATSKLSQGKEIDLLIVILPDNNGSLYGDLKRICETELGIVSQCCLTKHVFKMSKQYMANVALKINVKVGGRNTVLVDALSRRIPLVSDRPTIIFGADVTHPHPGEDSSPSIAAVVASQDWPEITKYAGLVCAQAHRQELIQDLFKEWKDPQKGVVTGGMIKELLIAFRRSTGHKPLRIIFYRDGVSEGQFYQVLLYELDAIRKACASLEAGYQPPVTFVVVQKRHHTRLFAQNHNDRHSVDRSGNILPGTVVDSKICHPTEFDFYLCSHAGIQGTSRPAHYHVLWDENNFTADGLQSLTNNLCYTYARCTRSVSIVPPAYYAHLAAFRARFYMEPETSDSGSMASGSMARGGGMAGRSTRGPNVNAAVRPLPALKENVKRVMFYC

[2] = biological target: T2, EUKARYOTIC INITIATION FACTOR 4E1 (EIF4E1), Prot-A fusion (Arabidopsis thaliana, UniProt O23252 1-235)
T2 construct: Eukaryotic initiation factor 4E1, Arabidopsis thaliana, AT4G18040; CDS amplified from Col-0 cDNA; source: HEK293TN cells, transfected; not shown: Protein A (Staphylococcus aureus), N-terminal, kept
T2 sequence (looked up): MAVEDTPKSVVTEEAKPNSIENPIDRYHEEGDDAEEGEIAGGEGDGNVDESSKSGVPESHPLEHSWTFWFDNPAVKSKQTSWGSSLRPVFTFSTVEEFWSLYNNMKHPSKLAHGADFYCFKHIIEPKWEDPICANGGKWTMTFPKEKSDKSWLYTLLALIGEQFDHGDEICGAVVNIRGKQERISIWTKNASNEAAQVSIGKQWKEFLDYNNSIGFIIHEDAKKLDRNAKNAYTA

[3] = biological target: T3, EIF (ISO) 4E, Prot-A fusion (Arabidopsis thaliana, UniProt O04663 1-198)
T3 construct: EIF(iso)4E, Arabidopsis thaliana, AT5G35620; CDS amplified from Col-0 cDNA; source: HEK293TN cells, transfected; not shown: Protein A (Staphylococcus aureus), N-terminal, kept
T3 sequence (looked up): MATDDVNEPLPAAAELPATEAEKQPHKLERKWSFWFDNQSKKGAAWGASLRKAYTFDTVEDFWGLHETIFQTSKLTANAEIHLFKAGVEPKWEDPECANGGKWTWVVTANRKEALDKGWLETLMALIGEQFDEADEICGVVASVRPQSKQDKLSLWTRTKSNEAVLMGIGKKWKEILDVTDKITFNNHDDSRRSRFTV

fold change from background [1]: 5.02 fold | percentage pulldown [1]: 0.47% | fold change from background [2]: 2.83 fold | percentage pulldown [2]: 0.27% | fold change from background [3]: 4.09 fold | percentage pulldown [3]: 0.39%
B1: AN, Renilla luciferase fusion (LUMIER) (natural protein, Arabidopsis thaliana, UniProt O23702 1-636, looked up)
chain: MSKIRSSATMPHRDQPSPASPHVVTLNCIEDCALEQDSLAGVAGVEYVPLSRIADGKIESATAVLLHSLAYLPRAAQRRLRPHQLILCLGSADRAVDSTLAADLGLRLVHVDTSRAEEIADTVMALILGLLRRTHLLSRHALSASGWLGSLQPLCRGMRRCRGMVLGIVGRSVSARYLASRSLAFKMSVLYFDVPEGDEERIRPSRFPRAARRMDTLNDLLAASDVISLHCALTNDTVQILNAECLQHIKPGAFLVNTGSCQLLDDCAVKQLLIDGTIAGCALDGAEGPQWMEAWVKEMPNVLILPRSADYSEEVWMEIREKAISILHSFFLDGVIPSNTVSDEEVEESEASEEEEQSPSKHEKLAIVESTSRQQGESTLTSTEIVRREASELKESLSPGQQHVSQNTAVKPEGRRSRSGKKAKKRHSQQKYMQKTDGSSGLNEESTSRRDDIAMSDTEEVLSSSSRCASPEDSRSRKTPLEVMQESSPNQLVMSSKKFIGKSSELLKDGYVVALYAKDLSGLHVSRQRTKNGGWFLDTLSNVSKRDPAAQFIIAYRNKDTVGLRSFAAGGKLLQINRRMEFVFASHSFDVWESWSLEGSLDECRLVNCRNSSAVLDVRVEILAMVGDDGITRWID
notes: ANGUSTIFOLIA (AN), Arabidopsis thaliana, AT1G01510; CDS amplified from Col-0 cDNA; in the dimerisation test the second copy must have been the N-terminal protein A fusion (surmised from the LUMIER format); also called wild-type AN; source: HEK293TN cells, transfected; not shown: Renilla reniformis luciferase, N-terminal, kept
